# Results: patent US20250332197A1 (SUNSHINE LAKE PHARMA, published 2025)
# T1: claudin-18.2 antigen (manufacturer: GenScript, batch number: R50092011) (UniProt P56856-2 1-261, limits assumed)
# T1 construct: Bought antigen
# T1 sequence (looked up): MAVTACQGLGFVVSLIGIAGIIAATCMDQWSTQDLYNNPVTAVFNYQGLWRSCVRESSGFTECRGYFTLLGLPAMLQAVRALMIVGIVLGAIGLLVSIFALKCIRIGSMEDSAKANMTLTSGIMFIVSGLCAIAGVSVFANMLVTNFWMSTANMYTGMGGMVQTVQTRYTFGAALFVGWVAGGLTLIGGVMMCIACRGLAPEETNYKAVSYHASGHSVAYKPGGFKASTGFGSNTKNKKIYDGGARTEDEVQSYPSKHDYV
# Key:
# [1] = molecular target: T1, claudin-18.2 antigen (manufacturer: …); experiment: ELISA, plate coated with claudin-18.2 antigen
# Description: The ELISA plates were washed three times with PBST and blocked with 5% PBS-milk for 2 h at room temperature. The ELISA plate was washed three times with PBST, and the diluted antibodies were added to the ELISA plate, 30 μL per well, and incubated at room temperature for 60 min. The plates were washed three times with PBST and incubated with anti-human IgG-Fc-HRP (abcam, ab97225) for 50 min at room temperature. The plate was washed 12 times with PBST, and TMB was added, 30 μL per well. The reaction was terminated with stop solution and OD450 was read. The ELISA affinity EC50 was calculated.
# [2] = molecular target: T1, claudin-18.2 antigen (manufacturer: …); experiment: Gator label-free kinetics, antibody loaded, antigen 2000-500 nM
# Description: The GATOR instrument and associated software were opened and the Kinetics experimental mode was selected. After data collection, Kinetics fitting was performed to calculate the affinity kinetic parameters. The correlation coefficient R² of all antibodies in the Global fitting mode was greater than 0.95, which met the system suitability requirements and the results were reliable.
EC50 [1] [µg/mL],Kd [2] [nM],koff [2] [s⁻¹],kon [2] [M⁻¹ s⁻¹],Binder
0.0978,4.57,6.36e-05,13900,"1B6-huVH2huVL1 (antibody, human IgG4 S228P, kappa, humanized 1B6, human IgG4, kappa) heavy: not shown light: DIVMTQSPSSLSVSVGDRVTMTCKSSQSLFNSGNQKNYLTWYQQKPGKAPKLLIYWASTRESGVPDRFSGSGSGTDFTLTISSVQPEDFATYFCQNDYSYPLTFGGGTKLEIKRTVAAPSVFIFPPSDEQLKSGTASVVCLLNNFYPREAKVQWKVDNALQSGNSQESVTEQDSKDSTYSLSSTLTLSKADYEKHKVYACEVTHQGLSSPVTKSFNRGEC"
0.56,2.02,2.08e-05,10300,"1E7-huVH3huVL2 (antibody, human IgG4 S228P, kappa, humanized 1E7, human IgG4, kappa) heavy: not shown light: DIQMTQSPSSLSASVGDRVTMTCKSSQSLLNSGNQKNYLTWYQQKPGKAPKLLIYWASTRESGVPSRFSGSGSGTDFTLTISSLQPEDFATYYCQNDYSYPFTFGGGTKLEIKRTVAAPSVFIFPPSDEQLKSGTASVVCLLNNFYPREAKVQWKVDNALQSGNSQESVTEQDSKDSTYSLSSTLTLSKADYEKHKVYACEVTHQGLSSPVTKSFNRGEC"
0.174,7.51,9.78e-05,13000,"1B6-huVH5huVL3 (antibody, human IgG4 S228P, kappa, humanized 1B6, human IgG4, kappa) heavy: not shown light: DIQMTQSPSSLSASVGDRVTITCRSSQSLFNSGNQKNYLTWYQQKPGKAPKLLIYWASTRESGVPSRFSGSGSGTDFTLTISSLQPEDFATYYCQNDYSYPLTFGGGTKLEIKRTVAAPSVFIFPPSDEQLKSGTASVVCLLNNFYPREAKVQWKVDNALQSGNSQESVTEQDSKDSTYSLSSTLTLSKADYEKHKVYACEVTHQGLSSPVTKSFNRGEC"
0.262,21.6,0.000269,12400,"1E7-huVH2huVL2 (antibody, human IgG4 S228P, kappa, humanized 1E7, human IgG4, kappa; also called P04898) heavy: not shown light: DIQMTQSPSSLSASVGDRVTMTCKSSQSLLNSGNQKNYLTWYQQKPGKAPKLLIYWASTRESGVPSRFSGSGSGTDFTLTISSLQPEDFATYYCQNDYSYPFTFGGGTKLEIKRTVAAPSVFIFPPSDEQLKSGTASVVCLLNNFYPREAKVQWKVDNALQSGNSQESVTEQDSKDSTYSLSSTLTLSKADYEKHKVYACEVTHQGLSSPVTKSFNRGEC"
0.441,6.19,6.27e-05,10100,"1E7-huVH4huVL3 (antibody, human IgG4 S228P, kappa, humanized 1E7, human IgG4, kappa) heavy: not shown light: DIQMTQSPSSLSASVGDRVTITCRSSQSLLNSGNQKNYLTWYQQKPGKAPKLLIYWASTRESGVPSRFSGSGSGTDFTLTISSLQPEDFATYYCQNDYSYPFTFGGGTKLEIKRTVAAPSVFIFPPSDEQLKSGTASVVCLLNNFYPREAKVQWKVDNALQSGNSQESVTEQDSKDSTYSLSSTLTLSKADYEKHKVYACEVTHQGLSSPVTKSFNRGEC"
0.309,4.6,4.86e-05,10600,"1E7-huVH4huVL2 (antibody, human IgG4 S228P, kappa, humanized 1E7, human IgG4, kappa; also called P04902) heavy: not shown light: DIQMTQSPSSLSASVGDRVTMTCKSSQSLLNSGNQKNYLTWYQQKPGKAPKLLIYWASTRESGVPSRFSGSGSGTDFTLTISSLQPEDFATYYCQNDYSYPFTFGGGTKLEIKRTVAAPSVFIFPPSDEQLKSGTASVVCLLNNFYPREAKVQWKVDNALQSGNSQESVTEQDSKDSTYSLSSTLTLSKADYEKHKVYACEVTHQGLSSPVTKSFNRGEC"
0.0569,0.98,1.27e-05,13000,"1B6-huVH3huVL1 (antibody, human IgG4 S228P, kappa, humanized 1B6, human IgG4, kappa; also called P04887) heavy: not shown light: DIVMTQSPSSLSVSVGDRVTMTCKSSQSLFNSGNQKNYLTWYQQKPGKAPKLLIYWASTRESGVPDRFSGSGSGTDFTLTISSVQPEDFATYFCQNDYSYPLTFGGGTKLEIKRTVAAPSVFIFPPSDEQLKSGTASVVCLLNNFYPREAKVQWKVDNALQSGNSQESVTEQDSKDSTYSLSSTLTLSKADYEKHKVYACEVTHQGLSSPVTKSFNRGEC"
0.346,7.24,8.07e-05,11100,"1B6-huVH4huVL3 (antibody, human IgG4 S228P, kappa, humanized 1B6, human IgG4, kappa; also called P04891) heavy: not shown light: DIQMTQSPSSLSASVGDRVTITCRSSQSLFNSGNQKNYLTWYQQKPGKAPKLLIYWASTRESGVPSRFSGSGSGTDFTLTISSLQPEDFATYYCQNDYSYPLTFGGGTKLEIKRTVAAPSVFIFPPSDEQLKSGTASVVCLLNNFYPREAKVQWKVDNALQSGNSQESVTEQDSKDSTYSLSSTLTLSKADYEKHKVYACEVTHQGLSSPVTKSFNRGEC"
0.156,5.08,5.56e-05,10900,"1E7-huVH1huVL2 (antibody, human IgG4 S228P, kappa, humanized 1E7, human IgG4, kappa) heavy: not shown light: DIQMTQSPSSLSASVGDRVTMTCKSSQSLLNSGNQKNYLTWYQQKPGKAPKLLIYWASTRESGVPSRFSGSGSGTDFTLTISSLQPEDFATYYCQNDYSYPFTFGGGTKLEIKRTVAAPSVFIFPPSDEQLKSGTASVVCLLNNFYPREAKVQWKVDNALQSGNSQESVTEQDSKDSTYSLSSTLTLSKADYEKHKVYACEVTHQGLSSPVTKSFNRGEC"
0.192,4.86,6.78e-05,13900,"1B6-huVH2huVL2 (antibody, human IgG4 S228P, kappa, humanized 1B6, human IgG4, kappa) heavy: not shown light: DIQMTQSPSSLSASVGDRVTMTCKSSQSLFNSGNQKNYLTWYQQKPGKAPKLLIYWASTRESGVPSRFSGSGSGTDFTLTISSLQPEDFATYYCQNDYSYPLTFGGGTKLEIKRTVAAPSVFIFPPSDEQLKSGTASVVCLLNNFYPREAKVQWKVDNALQSGNSQESVTEQDSKDSTYSLSSTLTLSKADYEKHKVYACEVTHQGLSSPVTKSFNRGEC"
0.309,3.58,3.81e-05,10600,"1E7-huVH1huVL1 (antibody, human IgG4 S228P, kappa, humanized 1E7, human IgG4, kappa) heavy: not shown light: DIVMTQSPSSLSVSVGDRVTMTCKSSQSLLNSGNQKNYLTWYQQKPGQPPKLLIYWASTRESGVPDRFSGSGSGTDFTLTISSVQPEDFATYYCQNDYSYPFTFGGGTKLEIKRTVAAPSVFIFPPSDEQLKSGTASVVCLLNNFYPREAKVQWKVDNALQSGNSQESVTEQDSKDSTYSLSSTLTLSKADYEKHKVYACEVTHQGLSSPVTKSFNRGEC"
0.202,10.6,0.000144,13600,"1B6-huVH5huVL2 (antibody, human IgG4 S228P, kappa, humanized 1B6, human IgG4, kappa) heavy: not shown light: DIQMTQSPSSLSASVGDRVTMTCKSSQSLFNSGNQKNYLTWYQQKPGKAPKLLIYWASTRESGVPSRFSGSGSGTDFTLTISSLQPEDFATYYCQNDYSYPLTFGGGTKLEIKRTVAAPSVFIFPPSDEQLKSGTASVVCLLNNFYPREAKVQWKVDNALQSGNSQESVTEQDSKDSTYSLSSTLTLSKADYEKHKVYACEVTHQGLSSPVTKSFNRGEC"
0.21,7.06,7.06e-05,9990,"1B6-huVH4huVL2 (antibody, human IgG4 S228P, kappa, humanized 1B6, human IgG4, kappa) heavy: not shown light: DIQMTQSPSSLSASVGDRVTMTCKSSQSLFNSGNQKNYLTWYQQKPGKAPKLLIYWASTRESGVPSRFSGSGSGTDFTLTISSLQPEDFATYYCQNDYSYPLTFGGGTKLEIKRTVAAPSVFIFPPSDEQLKSGTASVVCLLNNFYPREAKVQWKVDNALQSGNSQESVTEQDSKDSTYSLSSTLTLSKADYEKHKVYACEVTHQGLSSPVTKSFNRGEC"
0.509,13.5,0.000149,11000,"1E7-huVH3huVL3 (antibody, human IgG4 S228P, kappa, humanized 1E7, human IgG4, kappa) heavy: not shown light: DIQMTQSPSSLSASVGDRVTITCRSSQSLLNSGNQKNYLTWYQQKPGKAPKLLIYWASTRESGVPSRFSGSGSGTDFTLTISSLQPEDFATYYCQNDYSYPFTFGGGTKLEIKRTVAAPSVFIFPPSDEQLKSGTASVVCLLNNFYPREAKVQWKVDNALQSGNSQESVTEQDSKDSTYSLSSTLTLSKADYEKHKVYACEVTHQGLSSPVTKSFNRGEC"
0.209,8.11,8.56e-05,10600,"1B6-huVH3huVL3 (antibody, human IgG4 S228P, kappa, humanized 1B6, human IgG4, kappa) heavy: not shown light: DIQMTQSPSSLSASVGDRVTITCRSSQSLFNSGNQKNYLTWYQQKPGKAPKLLIYWASTRESGVPSRFSGSGSGTDFTLTISSLQPEDFATYYCQNDYSYPLTFGGGTKLEIKRTVAAPSVFIFPPSDEQLKSGTASVVCLLNNFYPREAKVQWKVDNALQSGNSQESVTEQDSKDSTYSLSSTLTLSKADYEKHKVYACEVTHQGLSSPVTKSFNRGEC"
0.436,0.277,2.65e-06,9550,"1E7-huVH2huVL1 (antibody, human IgG4 S228P, kappa, humanized 1E7, human IgG4, kappa) heavy: not shown light: DIVMTQSPSSLSVSVGDRVTMTCKSSQSLLNSGNQKNYLTWYQQKPGQPPKLLIYWASTRESGVPDRFSGSGSGTDFTLTISSVQPEDFATYYCQNDYSYPFTFGGGTKLEIKRTVAAPSVFIFPPSDEQLKSGTASVVCLLNNFYPREAKVQWKVDNALQSGNSQESVTEQDSKDSTYSLSSTLTLSKADYEKHKVYACEVTHQGLSSPVTKSFNRGEC"
0.606,12,0.000132,11000,"1E7-huVH3huVL1 (antibody, human IgG4 S228P, kappa, humanized 1E7, human IgG4, kappa) heavy: not shown light: DIVMTQSPSSLSVSVGDRVTMTCKSSQSLLNSGNQKNYLTWYQQKPGQPPKLLIYWASTRESGVPDRFSGSGSGTDFTLTISSVQPEDFATYYCQNDYSYPFTFGGGTKLEIKRTVAAPSVFIFPPSDEQLKSGTASVVCLLNNFYPREAKVQWKVDNALQSGNSQESVTEQDSKDSTYSLSSTLTLSKADYEKHKVYACEVTHQGLSSPVTKSFNRGEC"
